How the values were obtained:
[1] = biological target: Human Bcl-2 protein (isoform 2 construct), N-terminal 6xHis tagged recombinant protein (human); assay: fluorescence polarisation; saturation experiments with FAM-Bid and Mcl-1 or Bcl-2 protein; assay buffer 100 mM potassium phosphate, pH 7.5, 100 ug/ml bovine gamma globulin, 0.02% sodium azide
[2] = biological target: Human Bcl-2 protein (isoform 2 construct), N-terminal 6xHis tagged recombinant protein (human); assay: fluorescence polarisation; competition: Mcl-1 (20 nM) or Bcl-2 (40 nM) pre-incubated with FAM-Bid (2 nM and 2.5 nM), tested BH3 peptide added, 2-3 h; 100 mM potassium phosphate, pH 7.5, 100 ug/ml bovine gamma globulin, 0.02% sodium azide; Ki calculated from IC50
[3] = biological target: Human Bcl-2 protein (isoform 2 construct), N-terminal 6xHis tagged recombinant protein (human); assay: SPR; competitive solution binding: protein (20 nM) pre-incubated with tested BH3 peptide for at least 30 min, injected over immobilised biotin-Bim BH3 peptide; response at 30 s of dissociation

Row | Kd [1] [nM] | Ki [2] [nM] | IC50 [3] [nM] | Substance
1 | 6.3 | – | – | 21-residue Bid BH3 peptide labeled at the N-terminus with 6-carboxyfluorescein succinimidyl ester (FAM-Bid)
2 | – | 11.2 | 51.2 | Bid BH3 peptide (residues 79-99)

— publication PMC3717276, “Optimization and validation of mitochondria-based functional assay as a useful tool to identify BH3-like molecules selectively targeting anti-apoptotic Bcl-2 proteins” (BMC Biotechnology, 2013)
